Test results published in article PMC6542653.
Positions count from the first letter of the chain named.

Columns and labels:
[1] = target: T1, CytR DNA-binding domain wild type (UniProt P0ACN7 1-66); assay: fluorescence anisotropy
T1 sequence: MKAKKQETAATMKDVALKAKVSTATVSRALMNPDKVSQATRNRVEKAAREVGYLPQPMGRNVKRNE

[2] = target: T2, CytR DNA-binding domain double mutant (DM) (UniProt P0ACN7 1-66, A29V;A48M); assay: fluorescence anisotropy
T2 sequence: T1 sequence with A29V, A48M

B1: udp half-site (udpO) (dsDNA)
DNA 1: ATTTATGCAACGCA
DNA 2: TGCGTTGCATAAAT
[1]
  binding result: binds
[2]
  binding result: binds
